Changes are numbered by the printed parent chain. Names and notes keep the numbering of the source. Like-named read-outs stand apart in the source and are kept apart here. Blank lines part the entries; values can stand above or below the binder they belong to.
How the values were obtained:
[1] = target: T1, recombinant human C1q protein (Fitzgerald) (human, UniProt P02745 23-245; P02746 28-253; P02747 29-245, limits assumed); test: ELISA, test article immobilized, C1q added; text: devoid of C1q binding ability
T1 construct: also called human recombinant complement protein, C1q

[2] = target: T2, human FLT3 on the AML5 cell line (human, UniProt P36888 27-993); test: cell-based or functional assay
T2 sequence (looked up): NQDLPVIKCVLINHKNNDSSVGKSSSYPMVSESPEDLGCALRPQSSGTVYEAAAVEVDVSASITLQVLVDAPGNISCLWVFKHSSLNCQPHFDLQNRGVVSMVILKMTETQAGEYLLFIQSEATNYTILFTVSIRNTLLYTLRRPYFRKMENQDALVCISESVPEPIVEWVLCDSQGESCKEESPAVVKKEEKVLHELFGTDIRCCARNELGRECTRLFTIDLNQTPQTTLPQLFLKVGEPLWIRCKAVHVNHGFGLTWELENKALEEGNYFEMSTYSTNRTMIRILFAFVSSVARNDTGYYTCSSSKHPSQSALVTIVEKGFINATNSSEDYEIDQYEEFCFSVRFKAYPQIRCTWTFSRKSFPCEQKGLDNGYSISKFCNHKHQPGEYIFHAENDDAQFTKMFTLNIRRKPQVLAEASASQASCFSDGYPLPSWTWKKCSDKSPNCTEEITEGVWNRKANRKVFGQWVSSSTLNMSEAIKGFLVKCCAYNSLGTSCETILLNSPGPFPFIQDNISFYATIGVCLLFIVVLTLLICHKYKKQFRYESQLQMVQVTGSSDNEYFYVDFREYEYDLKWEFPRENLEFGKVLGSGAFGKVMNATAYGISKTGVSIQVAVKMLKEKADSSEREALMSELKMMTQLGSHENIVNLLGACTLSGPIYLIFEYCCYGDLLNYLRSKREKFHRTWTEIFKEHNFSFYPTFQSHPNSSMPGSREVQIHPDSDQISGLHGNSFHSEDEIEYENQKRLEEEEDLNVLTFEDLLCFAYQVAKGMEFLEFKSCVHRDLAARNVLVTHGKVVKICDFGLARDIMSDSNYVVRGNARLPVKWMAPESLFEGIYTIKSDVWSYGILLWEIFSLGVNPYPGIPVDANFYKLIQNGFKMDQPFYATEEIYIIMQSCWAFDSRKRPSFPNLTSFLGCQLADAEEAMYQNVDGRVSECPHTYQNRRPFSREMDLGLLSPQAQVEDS

[3] = target: T3, recombinant human FcRn (human, UniProt P55899 24-297; P61769 21-119, limits assumed); test: ELISA; recombinant human FcRn coated, serially diluted test article, anti-human (H+L)-HRP, 4PL fit; estimate, no saturating signal
T3 construct: a beta-2-microglobulin chain is not mentioned; also called human recombinant FcRn
Description: (§1) Graph is a result of one experiment. Experiment was performed in duplicate. Error bars represent standard deviation of the mean values.
(§2) Signal was developed using TMB substrate then quenched prior to reading absorbance at 450-650 nm on a SpectraMax plate reader.

[4] = target: T4, his-tagged recombinant human Flt3 receptor (Sino Biologicals) (human, UniProt P36888 27-541, limits assumed); test: ELISA; His-tagged recombinant human Flt3 on nickel plate, serially diluted Flt3L-Fc, anti-human (H+L)-HRP, 4PL fit
T4 construct: Bought protein; also called human recombinant FLT3; not shown: His tag
T4 sequence (looked up): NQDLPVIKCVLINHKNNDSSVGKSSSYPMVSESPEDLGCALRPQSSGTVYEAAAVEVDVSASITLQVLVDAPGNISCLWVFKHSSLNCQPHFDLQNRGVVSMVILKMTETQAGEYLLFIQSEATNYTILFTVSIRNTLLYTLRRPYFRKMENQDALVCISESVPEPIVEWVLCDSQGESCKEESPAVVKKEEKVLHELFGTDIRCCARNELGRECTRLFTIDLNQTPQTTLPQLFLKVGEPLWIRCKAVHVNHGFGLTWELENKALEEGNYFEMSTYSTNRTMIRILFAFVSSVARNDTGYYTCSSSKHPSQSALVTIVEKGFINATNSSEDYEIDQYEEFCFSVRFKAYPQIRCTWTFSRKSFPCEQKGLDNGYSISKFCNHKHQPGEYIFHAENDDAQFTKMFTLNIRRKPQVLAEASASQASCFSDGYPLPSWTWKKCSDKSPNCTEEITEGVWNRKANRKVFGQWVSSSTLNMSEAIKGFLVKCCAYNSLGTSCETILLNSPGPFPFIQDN
Source text: Graph is a result of one experiment.
(§3) Signal was developed using TMB substrate then quenched prior to reading absorbance at 450 nm on a SpectraMax plate reader.

[5] = target: T2, human FLT3 on the AML5 cell line; test: cell-based or functional assay; remark: listed apart in the source
[6] = target: T2, human FLT3 on the AML5 cell line; test: cell-based or functional assay; remark: listed apart in the source
[7] = target: T2, human FLT3 on the AML5 cell line; test: cell-based or functional assay; remark: listed apart in the source
[8] = target: T2, human FLT3 on the AML5 cell line; test: cell-based or functional assay; remark: listed apart in the source
[9] = target: T4, his-tagged recombinant human Flt3 …; test: ELISA; His-tagged recombinant human Flt3 on nickel plate, serially diluted Flt3L-Fc, anti-human (H+L)-HRP, 4PL fit; remark: listed apart in the source
Description: as §1, §3

[10] = target: T3, recombinant human FcRn; test: ELISA; recombinant human FcRn coated, serially diluted test article, anti-human (H+L)-HRP, 4PL fit
Description: as §1, §2

[11] = target: T2, human FLT3 on the AML5 cell line; test: cell-based or functional assay; remark: listed apart in the source

T1 sequence (P02745 23-245 limits assumed, chain 1 of 3): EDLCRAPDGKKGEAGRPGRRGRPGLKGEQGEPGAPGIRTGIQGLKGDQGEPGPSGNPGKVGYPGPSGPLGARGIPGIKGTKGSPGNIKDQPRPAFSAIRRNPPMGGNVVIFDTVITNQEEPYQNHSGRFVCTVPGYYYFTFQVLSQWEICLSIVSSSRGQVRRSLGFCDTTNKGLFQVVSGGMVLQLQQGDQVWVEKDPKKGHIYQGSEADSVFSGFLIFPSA
T1 sequence (P02746 28-253 limits assumed, chain 2 of 3): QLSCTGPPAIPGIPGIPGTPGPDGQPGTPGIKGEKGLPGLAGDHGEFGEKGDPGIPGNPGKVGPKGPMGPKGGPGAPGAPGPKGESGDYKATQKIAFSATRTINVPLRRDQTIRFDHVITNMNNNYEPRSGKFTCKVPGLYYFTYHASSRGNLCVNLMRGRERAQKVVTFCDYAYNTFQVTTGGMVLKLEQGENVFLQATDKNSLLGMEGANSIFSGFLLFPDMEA
T1 sequence (P02747 29-245 limits assumed, chain 3 of 3): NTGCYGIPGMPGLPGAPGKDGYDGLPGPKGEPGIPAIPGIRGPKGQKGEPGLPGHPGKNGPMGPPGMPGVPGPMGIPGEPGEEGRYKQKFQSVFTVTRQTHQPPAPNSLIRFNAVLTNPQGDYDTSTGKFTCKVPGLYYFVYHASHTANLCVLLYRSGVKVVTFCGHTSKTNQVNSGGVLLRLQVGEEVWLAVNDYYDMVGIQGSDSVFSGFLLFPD

B4: human FLT3-ligand human hingeless IgG1 fusion protein (SEQ ID NO:1) (Fc fusion)
chain: TQDCSFQHSPISSDFAVKIRELSDYLLQDYPVTVASNLQDEELCGGLWRLVLAQRWMERLKTVAGSKMQGLLERVNTEIHFVTKCAFQPPPSCLRFVQTNISRLLQETSEQLVALKPWITRQNFSRCLELQCQPDSSTLPPPWSPRPLEATAPTAPQGGPSVFLFPPKPKDTLMISRTPEVTCVVVDVSHEDPEVKFNWYVDGVEVHNAKTKPREEQYNSTYRVVSVLTVLHQDWLNGKEYKCKVSNKALPAPIEKTISKAKGQPREPQVYTLPPSREEMTKNQVSLTCLVKGFYPSDIAVEWESNGQPENNYKTTPPVLDSDGSFFLYSKLTVDKSRWQQGNVFSCSVMHEALHNHYTQKSLSLSPGK
notes: also called FLT3L ECD-hingeless hG1; hFLT3L ECD
EC50 (nM), AML5 proliferation [6]: 0.034 nM
binding result [1]: no binding (tested: 94 nM (highest of the titration))
EC50 (nM), AML5 proliferation [2]: 0.08 nM
EC50 [3]: ~151 nM
EC50 (nM), AML5 proliferation [5]: 0.078 nM
EC50 (nM), AML5 proliferation [7]: 0.04 nM
EC50 (nM), AML5 proliferation [8]: 0.05 nM
EC50 [9]: 0.81 nM
EC50 [10]: 2330 nM
EC50 [4]: 0.12 nM

B8: human FLT3-ligand (H8Y+K84E) human hingeless IgG1 fusion protein (SEQ ID NO:24) (Fc fusion)
chain: B4 chain with H8Y, K84E
EC50 (nM), AML5 proliferation [6]: 0.013 nM
potency in AML5 proliferation, fold against SEQ ID NO:1 [11]: ~2.5 fold

B9: human FLT3-ligand (S128A/S151A) human hingeless IgG1 fusion protein (SEQ ID NO:5) (Fc fusion)
chain: B4 chain with S102A, S125A
notes: also called Aglyco-FLT3L ECD (S128A/S151A) hingeless hG1
binding result [1]: no binding (tested: 94 nM (highest of the titration))
EC50 (nM), AML5 proliferation [2]: 0.078 nM
EC50 [3]: ~133 nM
EC50 [4]: 0.11 nM

B10: human FLT3-ligand (Δ5 amino acid) human hingeless IgG1 fusion protein (SEQ ID NO:2) (Fc fusion)
chain: TQDCSFQHSPISSDFAVKIRELSDYLLQDYPVTVASNLQDEELCGGLWRLVLAQRWMERLKTVAGSKMQGLLERVNTEIHFVTKCAFQPPPSCLRFVQTNISRLLQETSEQLVALKPWITRQNFSRCLELQCQPDSSTLPPPWSPRPLEATAGGPSVFLFPPKPKDTLMISRTPEVTCVVVDVSHEDPEVKFNWYVDGVEVHNAKTKPREEQYNSTYRVVSVLTVLHQDWLNGKEYKCKVSNKALPAPIEKTISKAKGQPREPQVYTLPPSREEMTKNQVSLTCLVKGFYPSDIAVEWESNGQPENNYKTTPPVLDSDGSFFLYSKLTVDKSRWQQGNVFSCSVMHEALHNHYTQKSLSLSPGK
notes: also called FLT3L ECD (Δ C-term 5aa (PTAPQ)) - hingeless hG1
binding result [1]: no binding (tested: 94 nM (highest of the titration))
EC50 (nM), AML5 proliferation [2]: 0.083 nM
EC50 [3]: ~300 nM
EC50 [4]: 0.13 nM

More lines, main results first:

EC50 (nM), AML5 proliferation [2]: 0.071 nM
EC50 [3]: ~158 nM
EC50 [4]: 0.12 nM
B1: human FLT3-ligand (Δ10 amino acid) human hingeless IgG1 fusion protein (SEQ ID NO:7) (Fc fusion)
chain: TQDCSFQHSPISSDFAVKIRELSDYLLQDYPVTVASNLQDEELCGGLWRLVLAQRWMERLKTVAGSKMQGLLERVNTEIHFVTKCAFQPPPSCLRFVQTNISRLLQETSEQLVALKPWITRQNFSRCLELQCQPDSSTLPPPWSPRPGGPSVFLFPPKPKDTLMISRTPEVTCVVVDVSHEDPEVKFNWYVDGVEVHNAKTKPREEQYNSTYRVVSVLTVLHQDWLNGKEYKCKVSNKALPAPIEKTISKAKGQPREPQVYTLPPSREEMTKNQVSLTCLVKGFYPSDIAVEWESNGQPENNYKTTPPVLDSDGSFFLYSKLTVDKSRWQQGNVFSCSVMHEALHNHYTQKSLSLSPGK
binding result [1]: no binding (tested: 94 nM (highest of the titration))

EC50 (nM), AML5 proliferation [5]: 0.171 nM
B2: mouse FLT3-ligand mouse IgG2a (LALA-PG) fusion protein (SEQ ID NO:19) (Fc fusion)
chain: TPDCYFSHSPISSNFKVKFRELTDHLLKDYPVTVAVNLQDEKHCKALWSLFLAQRWIEQLKTVAGSKMQTLLEDVNTEIHFVTSCTFQPLPECLRFVQTNISHLLKDTCTQLLALKPCIGKACQNFSRCLEVQCQPDSSTLLPPRSPIALEATELPEPRGPTIKPCPPCKCPAPNAAGGPSVFIFPPKIKDVLMISLSPIVTCVVVDVSEDDPDVQISWFVNNVEVHTAQTQTHREDYNSTLRVVSALPIQHQDWMSGKEFKCKVNNKDLGAPIERTISKPKGSVRAPQVYVLPPPEEEMTKKQVTLTCMVTDFMPEDIYVEWTNNGKTELNYKNTEPVLDSDGSYFMYSKLRVEKKNWVERNSYSCSVVHEGLHNHHTTKSFSRTPGK

EC50 (nM), AML5 proliferation [5]: 0.115 nM
B3: mouse FLT3-ligand mouse IgG2a (C136S LALA-PG) fusion protein (SEQ ID NO:20) (Fc fusion)
chain: B2 chain with C109S

EC50 (nM), AML5 proliferation [6]: 0.013 nM
potency in AML5 proliferation, fold against SEQ ID NO:1 [11]: ~2.5 fold
B5: human FLT3-ligand (K84E) human hingeless IgG1 fusion protein (SEQ ID NO:23) (Fc fusion)
chain: B4 chain with K84E

EC50 (nM), AML5 proliferation [7]: 0.035 nM
B6: human FLT3-ligand human IgG1 fusion protein (SEQ ID NO:21) (Fc fusion)
chain: B4 chain with L273K, T288S, P317V, F327R, Y329A, K331Y

EC50 (nM), AML5 proliferation [6]: 0.014 nM
potency in AML5 proliferation, fold against SEQ ID NO:1 [11]: ~2.5 fold
B7: human FLT3-ligand (H8Y) human hingeless IgG1 fusion protein (SEQ ID NO:22) (Fc fusion)
chain: B4 chain with H8Y
